Results on 19 sequences are retold here after the DeepSol protein solubility set.

The nature of the data set: soluble on expression in E. coli; label from the status in PepcDB or PDB records.
Consider “MGSDKIHHHHHHMIMKVVVKVGSNLLVGSSGLRKSYIAELCREVARLKSQGHEISIITSGARAAGFTYLGKGKRTQDLHIKQALCAVGQVQLMKVYENAFDFYGIKIAQILLTRDTFSNRKRYLNLRNTLIGLSEFDVVPIVNENDTVATEEITLGDNDTLAAMFSIAWDADFLVLFTTVDGVIDENGKLVERFDESVKLKDMGKSSWGTGGIRSKIESALMASRCGVKATICSGNDVSNLTRFVKGEPVGTVFEPQGRLKAKKAWIAFLSEPAGKIYVNKGAEEALKSGNSLLPVGVTGVEGTFDVGDVVEIVNEEGELVGRGIVNYSSSDLEKIAGHKSSDLKKILGYEGNKVVVHIDNMWVA”, for which the “soluble on expression in E. coli” value is on record as “not soluble”.

As for “MNVTEQNSHQILIQKLLVSIHYLTLFRDELKLVERTPSILGGEFPAHLVQSELGDIVAAIDTLDMQQRLIESTFWYEESAFKLMNKTLDIVDNWIKGVDHLIDLCQSKEVFQIIIGDKRIRVFGVLSDVFSSLKVSALSLKEAPIPDVLYEHIQRVNLEEEAFIKYYQSPKVPTGEFE”, the “soluble on expression in E. coli” value is listed as “not soluble”.

With “MGSDKIHHHHHHMPEEKQKKSVLEKALKRIEENFGKGSIMILGDETQVQPVEVIPTGSLAIDIATGVGGYPRGRIVEIFGQESSGKTTLALHAIAEAQKMGGVAAFIDAEHALDPVYAKNLGVDLKSLLISQPDHGEQALEIVDELVRSGVVDLIVVDSVAALVPRAEIEGAMGDMQVGLQARLMSQALRKIAGSVNKSKAVVIFTNQIRMKIGVMFGSPETTTGGLALKFYATMRMEVRRGEPIKEGKDVIGNVISVKIVKNKVAPPFKTAQTYIIYGKGIDREYELFNIAVNEGIVDRKGSWYYYTTLKGEEVSLGQGSSNAVQFLKDNPEIAGEIERRIREKYGLLSVEKEEQRKEKKSSGEEAS”, the “soluble on expression in E. coli” value is “not soluble”.

Regarding “MELATTQSVLMQIQPTIQRFARMLASVLQLEVEIVDENLCRVAGTGAYGKFLGRQLSGNSRLLRHVLETKTEKVVTQSRFDPLCEGCDSKENCREKAFLGTPVILQDRCVGVISLIAVTHEQQEHISDNLREFSDYVRHISTIFVSKLLEDQGPGDNISKIFATMIDNMDQGVLVVDDENRVQFVNQTALKTLGVVQNNIIGKPIRFRPLTFESNFTHGHMQHIVSWDDKSELIIGQLHNIQGRQLFLMAFHQSHTSFSVANAPDEPHIEQLVGECRVMRQLKRLISRIAPSPSSVMVVGESGTGKEVVARAIHKLSGRRNKPFIAINCAAIPEQLLESELFGYVKGAFTGASANGKTGLIQAANTGTLFLDEIGDMPLMLQAKLLRAIEAREILPIGASSPIQVDIRIISATNQNLAQFIAEGKFREDLFYRLNVIPITLPPLRERQEDIELLVHYFLHLHTRRLGSVYPGIAPDVVEILRKHRWPGNLRELSNLMEYLVNVVPSGEVIDSTLLPPNLLNNGTTEQSDVTEVSEAHLSLDDAGGTALEEMEKQMIREALSRHNSKKQVADELGIGIATLYRKIKKYELLNT”, the “soluble on expression in E. coli” value is “not soluble”.

For “MKWRTRVTELLGITYPIIQGGLAYLAYADLAAAVSNAGGLGQITAMSLDGPEQLREEIRKVKEKTDRPFGVNFAIGQHGRPFAHMLEAALDEGVPVVSVTGGNPAPFFEQLKGTNVKKLVLVAAVRQAVKAEELGADAVMVVGQEGGGHLGKYDTGTFVLIPKVVDSVSIPVIASGGIADGRGLMAALALGAEGIEMGTRFIATKECVHAHPAYKEMILNATENDTVIIKRSLGAPGRVLANAWAEKILEIERQGGTYDDLKEYISGEANRRFIYEGKVDEGFAWAGQAIGLIHDVPSVAELFARMIEEAEQIRRRWAN”, the “soluble on expression in E. coli” value is “not soluble”.

On to “MDPKPINEGMLLEDHDHGMPEEEEITEDDMNGIHNIEEDTRTISEIAMELHHPNKSQVLLDQERFLPIANVVRIMKTQMDPQAKLAKDAKECAQECVSEFISFIASEAAEICNITKRKTITADDLLTAMEATGFDNYAEPMRIFLQKYRQAHKITGPIHRTHPDYVRPPQFQMDPFVRPLFFDTEQGRRCTETQYVINGSEIVKNAPLGEEWNEQTGTLNTRADGYYMEEPMEPMPMEEVEIEEHEEIIEQDSLGAIALEQQGQMQIYVDPKTKQHFAAKETPNGMELYPLIIQDTPLQLENVSGPNQFVMNMPDGRAIPHGMGQEEPQPVSSSSVMRKIGQNPSSYAQQHHHVSHVEQHDDVEYEEEEEVDQVEEDTVPVPIAPRPAATRVQPKRTPTKRKK”, for which the “soluble on expression in E. coli” value is listed as “not soluble”.

On to “MKEQILEKLKTVKYPGFEKDIVSFNFVKDIKIQDDGVFIDIEIVSANPEVANEIRKNTIEALSSLALKNIELNIITPKIPEEKSNSRSGKNIAPQVKNFIMVSSGKGGVGKSTTTVNLAISMAKMGKRVGILDADIYGPNIPRMLGETKTQPEVVGQRLKPILTHGVYMMSMGVLIEEGQGLMWRGAMIMKAIEQLLADVIWPELDVLFLDMPPGTGDAQITSAQSIPIAAGVCVSTPQTVSLDDSKRALDMFNKLHIPIAGVIENMSGFLCPDNGKEYDIFGKGTAEDMAKAYKSEVLAQIPIEMIVREGGDEGKPVSFYHPESVSSKRYLMAAEKIWSFIEKINNEGGADNSAIQPVMNGKSACSHLEHHHHHH”, for which the “soluble on expression in E. coli” value is “soluble”.

“MSLIRKFSSKDLDAVEEIEREAFKTPYPTSLILGFWSMYPNCFYVAEIDGRVVGYILGSMDWGNGHIISLAVKKECRGLGIGTALLKTLENYYFNIANCNYIVLEVRVSNVLARRFYYRMGYRDRKLLPKYYEDGEDAILMIKKKPNAKGPLIITLWEGHHHHHH”: the “soluble on expression in E. coli” value was “soluble”.

Take “MPSGVDGVGLLVRWLIEGSRGGVTRARILMLLRERPRNAHQLSQELGLNYRTVLHHLEVLARHGLIARLYEGYGAPYALTNLAERHWSVIEDSIRRVGVRL”: the “soluble on expression in E. coli” value was “not soluble”.

“MGSDKIHHHHHHMTEKTTAELENLRGLIDGVDSQLLSLLRKRLDLVAQVGTVKHAAGLPIYAPAREAAMLGKRRAEAEAMGVSPQLIEDILRRLMRESYMSEKDVGFKQVNPELGHIVIIGGQGQLGRLFAQMFALSGYEVRLLDKDDWDHADELFDGAGLVLVTVPIATTCSLIRERLDHLPEHCILADLTSVKGAPLKAMLETHKGPVVGLHPMFGPDVGSLAKQVVVVCHGRAPEKYQWLMEQIGIWGARLVEADAGRHDKAMQLVQAMRHFSSFVYGLNLCREQADIDTLLEFSSPIYRLELAMVGRLFAQSGELYADIIFAQEESLTAISDFIDNYRDALELLKTGDRAGFIARFNEVSNWFGNYSQQFLTESRAMLQSVNDMRSV”: the “soluble on expression in E. coli” value is on record as “not soluble”.

For “MSKKLLIKTWGCQMNEYDSSKMADLLNAANGYELTEEPEEADVLLLNTCSIREKAQEKVFHQLGRWKTLKDKKPGVVIGVGGCVATQEGDHIRERAPYVDVIFGPQTLHRLPEMIKQSQTDDAPVMDISFPEIEKFDRLPEPRAEGATAFVSIMEGCSKYCTYCVVPYTRGEEVSRPMDDVLFEIAQLAEQGVREVNLLGQNVNAYRGPMHDGEICSFAELLRLVASIDGIDRIRFTTSHPLEFTDDIIAVYEDTPELVSFLHLPVQSGSDRILTMMKRPHTAIEYKSIIRKLRKARPDIQISSDFIVGFPGETDKDFQDTMKLIKDVDFDMSFSFIFSPRPGTPAADYPCDIPEQVKKERLYELQQTINAQAMRYSRLMLATEQRVLVEGPSKKNLMELRARTENNRVVNFEGSADLIGQFVDVKITDVFANSLRGELVRTEKDMDLRSVISPTQMMAKTRREDELGVATFTPLEHHHHHH”, the “soluble on expression in E. coli” value is recorded as “soluble”.

Turning to “MGSSHHHHHHSSGLVPRGSHMTPDDIAGFYAKRADLDLDNYIELDFDFECAGDPHEAAAHLCSEQSTAQWRRVGFDEDFRPRFAAKVLELSAEPRPSGFSVPVECAARGPVHACRVTIAHPHGNFGAKIPNLLSAVCGEGVFFSPGIPLIRLQDIRFPEPYLAAFDGPRFGIAGVRERLQAFDRPIFFGVIKPNIGLPPQPFAELGYQSWTGGLDIAKDDEMLADVDWCPLAERAALLGDACRRASAETGVPKIYLANITDEVDRLTELHDVAVANGAGALLINAMPVGLSAVRMLRKHATVPLIAHFPFIAAFSRLANYGIHSRVMTRLQRLAGFDVVIMPGFGPRMMTPEHEVLDCIRACLEPMGPIKPCLPVPGGSDSAATLENVYRKVGSADFGFVPGRGVFGHPMGPAAGATSIRQAWDAIAAGIPVPDHAASHPELAAALRAFGGR”, the “soluble on expression in E. coli” value is given as “soluble”.

Regarding “MVGTFLGTGASSGVPMLNCSCKVCTSSYSKNKRLRSSFFLESSSGIKLLIDTGPDIRQQLLREKIDRLDLVLYTHEHYDHIMGFDDIKFYTRCAPLNIYARDTAMAHIRNAFPYNFTSKPSLSGKADIIANVIRDFEPFFFKSLKIVPIPLIHGDIISLGYRVGNLAYLTDVKFIPEASYDYLKNLDLLIIDAMRIKPHPAHLNFSEAFCVIKKINPKISYFTHIAHDIMHEEFDYLEKDNIYLAYDGLKIYILEHHHHHH”, the “soluble on expression in E. coli” value is recorded as “not soluble”.

In the case of “MGSDKIHHHHHHMSANRLPVTVVTGFLGSGKTTLLRHLLREGNQRLAVVVNEFGTVGLDGDLLKNCGLCPDDEVDERIVELNNGCLCCTVQEDFLPAMEALLLRSNQLDGIIIETSGLALPKPLLQALNWPAIRNKVFINGVVTLVDGYALSNGSPVSDLKSINEQMTNDNSIDHITPIDELFRDQLISADLVLVSRSDLLSAKDFLFVEEEVKKRGNSNANVLPISNGIIEPSVILGLCKEQNNIYRLDQNNQNQNQNQNHDHDHDHDHDHDHVDVISDHLRMETPIDQDVLREMFLRLVPEYQILRVKGKCWIEGKALPLQIQMVGPRFNSWFEAANENAWQPRQSGIDIVFLSLREGVKEAVVNSLCISTRIK”, the “soluble on expression in E. coli” value was “not soluble”.

“MNVYTFDFNDIKNQSDFYREFTQTFGLASEKVSDLDTLWDAVMSDILPLPLEIEFVHLPDKLRRRYGALILLFDEAEEELEGRLRFNVRH”: the “soluble on expression in E. coli” value is given as “not soluble”.

On to “MPSTDFADIPAAKKMKIDTCVLRFAKLTENALEPVRGSAKAAGVDLRSAYDVVVPARGKAIVKTDLQVQVPEGSYGRVAPRSGLAVKNFIDVGAGVVDEDYRGNLGVVLFNHSDVDFEVKHGDRIAQFICERIFYPQLVMVDKLEDTERGEAGFGSTGVK”, for which the “soluble on expression in E. coli” value is reported as “soluble”.

Take “MGNLCSTSKNEAEPFSRPGRVLGSAANPPPNAAPRAPLPAKSKAPFKSPGRSLGEAAPEVPGAERADARTNAAIAAQVSDTVERSGAALVCGRWLTGECQKRAESAAKAQKGKLGSKLAAQKAQTQAKTLSEVSREQISARHMDESSEARRWN”: the “soluble on expression in E. coli” value is “not soluble”.

Turning to “MLTFALTIVRAGETQYNRDKLLQGQGIDTPLSDTGHQQAAAAGRYLKDLHFTNVFVSNLQRAIQTAEIILGNNLHSSATEMILDPLLRERGFGVAEGRPKEHLKNMANAAGQSCRDYTPPGGETLEQVKTRFKMFLKSLFQRMFEEHGSALSSVPSEADQPVIAGLADDGAQNVPVHALMVSHGAFIRISVRHLVEDLQCCLPAGLKMNQVFSPCPNTGISRFIFTIHREESVLRATRIQGVFINRKDHLEEVKNSDLEHHHHHH”, the “soluble on expression in E. coli” value is on record as “soluble”.

“MKCKKCGRKAVANLKAYGIALCEKCYPEFYRNLVKRSIKRFRILRPEERVLIAISGGKDSSALAAVLKELDYDAELLYIDLGIGNYSEESERVVRELSSSLDLSLNVVRLRDYGFTVDDVARKMRRKTCSACGTAKRYIMNRFARENSFDVVATGHTAEDIASFYIKNVAGGTRVWAEKLMPRNEPFDEKIVTRAKPLFEVSEKENMLYVLVNDIPHTLMECPHAPNPEWKEIVYDIERRKPGFVKNFVRGLVRPAEEFEETKYCKICGEVSSGDVCAFCRLRERLS”: the “soluble on expression in E. coli” value is given as “not soluble”.
